Experimental data: article PMC6934807, “Development of hypoallergenic variants of the major horse allergen Equ c 1 for immunotherapy by rational structure based engineering” (Scientific Reports, 2019)

What was measured:
[1] = molecular target: the molecule itself; assay: cell-based or functional assay
[2] = molecular target: T1, recombinant Equ c 1 wild type (Equ c 1.0101) (horse); assay: SEC; SE-UHPLC, Acquity BEH125 SEC column, PBS (12 mM Na2HPO4, 3 mM NaH2PO4, 150 mM NaCl, pH 7.3), 2 µl of a 40 µM protein solution injected, compared with protein standards; settings: both partners purified
T1 chain: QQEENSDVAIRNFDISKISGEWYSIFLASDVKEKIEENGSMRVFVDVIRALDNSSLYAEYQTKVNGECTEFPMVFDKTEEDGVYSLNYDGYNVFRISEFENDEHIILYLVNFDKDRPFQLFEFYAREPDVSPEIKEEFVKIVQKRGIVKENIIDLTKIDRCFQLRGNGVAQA

[3] = molecular target: T1, recombinant Equ c 1 wild type (Equ c …); assay: native MS; native ESI FT-ICR MS, dilution series 0.1-4.8 µM (monomer) in 10 mM ammonium acetate, diluted samples kept four days at +4 °C, five parallel spectra per concentration; Kd from monomer and dimer ion intensities; dimer to monomers; settings: both partners purified
[4] = molecular target: the molecule itself; assay: native MS; native ESI FT-ICR MS at 40 µM protein, 10 mM ammonium acetate pH 6.9; Kd of Triple 3 estimated from monomer and dimer intensities at this single concentration; dimer to monomers

B1: Equ c 1 Triple 2 (V47K + V110E + F112K) (natural protein)
chain: QQEENSDVAIRNFDISKISGEWYSIFLASDVKEKIEENGSMRVFVDKIRALDNSSLYAEYQTKVNGECTEFPMVFDKTEEDGVYSLNYDGYNVFRISEFENDEHIILYLENKDKDRPFQLFEFYAREPDVSPEIKEEFVKIVQKRGIVKENIIDLTKIDRCFQLRGNGVAQA
EC50 of histamine release from stripped basophils passively sensitised with serum A of a horse allergic person [1]: 0.11 nM | EC50 of histamine release from stripped basophils passively sensitised with serum B of a horse allergic person [1]: 0.24 nM | EC50 of histamine release from stripped basophils passively sensitised with serum C of a horse allergic person [1]: 0.22 nM | EC50 of histamine release from stripped basophils passively sensitised with serum D of a horse allergic person [1]: 0.18 nM | EC50 of histamine release from stripped basophils passively sensitised with serum E of a horse allergic person [1]: 0.84 nM | EC50 of histamine release from stripped basophils passively sensitised with serum F (RefLab's positive control serum) [1]: 0.72 nM | EC50 of histamine release from stripped basophils, median of the six sera [1]: 0.23 nM

B2: recombinant Equ c 1 wild type (Equ c 1.0101) (natural protein)
chain: QQEENSDVAIRNFDISKISGEWYSIFLASDVKEKIEENGSMRVFVDVIRALDNSSLYAEYQTKVNGECTEFPMVFDKTEEDGVYSLNYDGYNVFRISEFENDEHIILYLVNFDKDRPFQLFEFYAREPDVSPEIKEEFVKIVQKRGIVKENIIDLTKIDRCFQLRGNGVAQA
modifications: extra vector-derived N-terminal Ala left out; disulfide Cys68-Cys161 (mature numbering, precursor = +15); homodimer at micromolar concentration (Kd 15.6 nM) / extra vector-derived N-terminal Ala left
stoichiometry N [2]: 2 | Kd [3]: 15.6 ± 0.8 nM

B3: Equ c 1 Triple 3 (E21Y + V110E + F112K) (natural protein)
chain: QQEENSDVAIRNFDISKISGYWYSIFLASDVKEKIEENGSMRVFVDVIRALDNSSLYAEYQTKVNGECTEFPMVFDKTEEDGVYSLNYDGYNVFRISEFENDEHIILYLENKDKDRPFQLFEFYAREPDVSPEIKEEFVKIVQKRGIVKENIIDLTKIDRCFQLRGNGVAQA
Kd [4]: ~800000 nM | EC50 of histamine release from stripped basophils passively sensitised with serum A of a horse allergic person [1]: 0.29 nM | EC50 of histamine release from stripped basophils passively sensitised with serum B of a horse allergic person [1]: 0.42 nM | EC50 of histamine release from stripped basophils passively sensitised with serum C of a horse allergic person [1]: 0.52 nM | EC50 of histamine release from stripped basophils passively sensitised with serum D of a horse allergic person [1]: 0.26 nM | EC50 of histamine release from stripped basophils passively sensitised with serum E of a horse allergic person [1]: 3.7 nM | EC50 of histamine release from stripped basophils passively sensitised with serum F (RefLab's positive control serum) [1]: 1.1 nM | EC50 of histamine release from stripped basophils, median of the six sera [1]: 0.47 nM
